# According to PMC11996608 (Nature structural & molecular biology, 2025):
# What was measured:
# Eco RNAP β subunit = Eco RNAP β subunit (Escherichia coli, UniProt P0A8V2 1-1342); experiment: cryo-EM structure
# [1] = target: Eco RNAP β' subunit (β'-PPX-His10) (Escherichia coli, UniProt P0A8T7 1-1407); experiment: cryo-EM structure
# Sequence of Eco RNAP β' subunit (β'-PPX-His10) (P0A8T7 whole entry): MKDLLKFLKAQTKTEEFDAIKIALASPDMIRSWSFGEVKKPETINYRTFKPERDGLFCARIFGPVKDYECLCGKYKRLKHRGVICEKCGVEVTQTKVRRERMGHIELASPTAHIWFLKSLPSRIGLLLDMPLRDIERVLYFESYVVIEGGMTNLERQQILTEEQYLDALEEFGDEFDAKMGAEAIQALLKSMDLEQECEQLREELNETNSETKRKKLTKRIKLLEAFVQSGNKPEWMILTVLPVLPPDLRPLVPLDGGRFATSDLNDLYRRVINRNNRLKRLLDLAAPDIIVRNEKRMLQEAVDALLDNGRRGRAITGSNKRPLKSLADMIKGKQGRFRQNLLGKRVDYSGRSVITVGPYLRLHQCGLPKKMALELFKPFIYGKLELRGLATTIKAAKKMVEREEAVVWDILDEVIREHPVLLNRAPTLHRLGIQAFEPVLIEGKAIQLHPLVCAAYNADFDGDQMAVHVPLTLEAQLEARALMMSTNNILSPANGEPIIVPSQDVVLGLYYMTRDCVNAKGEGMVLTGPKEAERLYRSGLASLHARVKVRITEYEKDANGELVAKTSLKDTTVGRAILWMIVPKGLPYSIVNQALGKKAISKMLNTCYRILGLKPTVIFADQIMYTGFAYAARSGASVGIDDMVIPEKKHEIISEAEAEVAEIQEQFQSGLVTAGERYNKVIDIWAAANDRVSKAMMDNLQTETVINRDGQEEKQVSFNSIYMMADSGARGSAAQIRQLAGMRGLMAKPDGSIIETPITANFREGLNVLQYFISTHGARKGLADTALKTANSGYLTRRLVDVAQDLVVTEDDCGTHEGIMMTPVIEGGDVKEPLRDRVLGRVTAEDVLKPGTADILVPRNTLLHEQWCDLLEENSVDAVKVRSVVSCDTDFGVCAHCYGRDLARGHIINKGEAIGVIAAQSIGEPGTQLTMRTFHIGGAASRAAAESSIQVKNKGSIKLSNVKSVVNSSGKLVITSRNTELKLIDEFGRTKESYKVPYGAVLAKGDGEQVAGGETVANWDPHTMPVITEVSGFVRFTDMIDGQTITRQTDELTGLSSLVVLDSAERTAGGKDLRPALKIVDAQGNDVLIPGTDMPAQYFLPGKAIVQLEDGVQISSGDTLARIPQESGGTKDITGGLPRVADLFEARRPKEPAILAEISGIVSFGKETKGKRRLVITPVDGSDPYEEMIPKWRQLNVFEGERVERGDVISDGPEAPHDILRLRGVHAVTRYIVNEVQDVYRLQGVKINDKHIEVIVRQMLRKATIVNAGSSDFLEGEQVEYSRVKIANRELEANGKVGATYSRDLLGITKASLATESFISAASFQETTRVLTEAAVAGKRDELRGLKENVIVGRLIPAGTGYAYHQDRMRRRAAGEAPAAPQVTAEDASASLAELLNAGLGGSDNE
# Sequence of Eco RNAP β subunit (P0A8V2 whole entry): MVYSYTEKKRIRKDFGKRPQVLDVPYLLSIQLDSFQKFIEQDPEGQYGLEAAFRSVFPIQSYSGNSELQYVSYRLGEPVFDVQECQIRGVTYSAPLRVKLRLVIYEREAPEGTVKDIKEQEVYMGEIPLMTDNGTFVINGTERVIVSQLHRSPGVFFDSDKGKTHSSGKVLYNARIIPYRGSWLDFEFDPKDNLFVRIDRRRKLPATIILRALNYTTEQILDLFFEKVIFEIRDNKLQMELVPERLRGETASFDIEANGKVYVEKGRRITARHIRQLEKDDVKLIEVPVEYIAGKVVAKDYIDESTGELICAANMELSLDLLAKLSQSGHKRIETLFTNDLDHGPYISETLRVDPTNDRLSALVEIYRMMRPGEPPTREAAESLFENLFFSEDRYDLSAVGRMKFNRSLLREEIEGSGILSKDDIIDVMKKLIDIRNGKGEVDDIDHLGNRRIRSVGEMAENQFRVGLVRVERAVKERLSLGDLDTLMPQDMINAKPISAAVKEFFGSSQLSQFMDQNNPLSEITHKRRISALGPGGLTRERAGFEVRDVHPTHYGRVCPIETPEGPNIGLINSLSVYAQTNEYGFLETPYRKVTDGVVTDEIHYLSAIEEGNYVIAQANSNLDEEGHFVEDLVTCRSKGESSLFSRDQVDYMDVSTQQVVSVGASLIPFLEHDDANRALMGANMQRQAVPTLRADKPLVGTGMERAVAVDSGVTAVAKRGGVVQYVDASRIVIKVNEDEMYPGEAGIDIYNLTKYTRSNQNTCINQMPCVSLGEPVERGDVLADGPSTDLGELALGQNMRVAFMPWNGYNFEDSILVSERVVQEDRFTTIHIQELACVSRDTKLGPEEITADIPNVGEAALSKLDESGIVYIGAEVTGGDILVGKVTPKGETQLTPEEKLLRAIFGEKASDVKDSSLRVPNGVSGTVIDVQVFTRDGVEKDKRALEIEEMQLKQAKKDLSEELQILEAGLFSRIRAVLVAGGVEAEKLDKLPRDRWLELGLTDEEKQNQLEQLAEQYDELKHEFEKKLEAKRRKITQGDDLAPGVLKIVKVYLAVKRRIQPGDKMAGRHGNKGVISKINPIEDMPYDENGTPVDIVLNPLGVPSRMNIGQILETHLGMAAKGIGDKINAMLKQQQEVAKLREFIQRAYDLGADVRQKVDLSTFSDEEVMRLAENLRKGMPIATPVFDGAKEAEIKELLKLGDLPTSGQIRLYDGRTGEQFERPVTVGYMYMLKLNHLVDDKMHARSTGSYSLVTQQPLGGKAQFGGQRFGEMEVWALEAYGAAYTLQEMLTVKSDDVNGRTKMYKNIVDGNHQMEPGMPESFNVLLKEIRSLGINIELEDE
binder,measurement,setting,value
"Eco RapA (N-terminally His6-tagged full-length RapA) (enzyme, Escherichia coli, UniProt P60240 1-968, looked up) MPFTLGQRWISDTESELGLGTVVAVDARTVTLLFPSTGENRLYARSDSPVTRVMFNPGDTITSHDGWQMQVEEVKEENGLLTYIGTRLDTEESGVALREVFLDSKLVFSKPQDRLFAGQIDRMDRFALRYRARKYSSEQFRMPYSGLRGQRTSLIPHQLNIAHDVGRRHAPRVLLADEVGLGKTIEAGMILHQQLLSGAAERVLIIVPETLQHQWLVEMLRRFNLRFALFDDERYAEAQHDAYNPFDTEQLVICSLDFARRSKQRLEHLCEAEWDLLVVDEAHHLVWSEDAPSREYQAIEQLAEHVPGVLLLTATPEQLGMESHFARLRLLDPNRFHDFAQFVEEQKNYRPVADAVAMLLAGNKLSNDELNMLGEMIGEQDIEPLLQAANSDSEDAQSARQELVSMLMDRHGTSRVLFRNTRNGVKGFPKRELHTIKLPLPTQYQTAIKVSGIMGARKSAEDRARDMLYPERIYQEFEGDNATWWNFDPRVEWLMGYLTSHRSQKVLVICAKAATALQLEQVLREREGIRAAVFHEGMSIIERDRAAAWFAEEDTGAQVLLCSEIGSEGRNFQFASHMVMFDLPFNPDLLEQRIGRLDRIGQAHDIQIHVPYLEKTAQSVLVRWYHEGLDAFEHTCPTGRTIYDSVYNDLINYLASPDQTEGFDDLIKNCREQHEALKAQLEQGRDRLLEIHSNGGEKAQALAESIEEQDDDTNLIAFAMNLFDIIGINQDDRGDNMIVLTPSDHMLVPDFPGLSEDGITITFDREVALAREDAQFITWEHPLIRNGLDLILSGDTGSSTISLLKNKALPVGTLLVELIYVVEAQAPKQLQLNRFLPPTPVRMLLDKNGNNLAAQVEFETFNRQLNAVNRHTGSKLVNAVQQDVHAILQLGEAQIEKSARALIDAARNEADEKLSAELSRLEALRAVNPNIRDDELTAIESNRQQVMESLDQAGWRLDALRLIVVTHQ",binding result,Eco RNAP β subunit,binds
same,binding result,[1],binds
